In the supplement of paper PMC10567573:

B1: TMEM106C (parent)
chain: SEQLVNFTGKAEMGGPFSYVYFFC

Variants of: B1
Experiment: protein stability index of a GFP-peptide fusion (GPS, HEK-293T) (PSI 1-6); higher = more stable
Conditions: c terminus: a fixed tail appended
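Further: lentivirally expressed fusions sorted by FACS into six bins by GFP to DsRed ratio, PSI derived from sequencing read proportions per bin multiplied by bin number.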

Protein stability index of substitutions, site by site:
A11: L 2.92 | T 3.55 | P 4.32 | Y 2.47 | W 2.75 | R 2.14 | M 2.61 | D 2.64 | V 3.08 | N 2.66 | E 3.33 | H 2.39 | K 3.7 | I 2.16 | S 2.17 | F 3.61 | C 2 | G 2.41 | Q 3.25
E12: W 3.46 | S 2.79 | K 4.11 | N 2.69 | H 3.66 | V 2.79 | I 2.98 | C 2.67 | D 2.46 | A 1.37 | L 2.07 | F 2.67 | P 3.12 | Q 4.32 | T 2.51 | M 3.74 | Y 3.17 | G 2.96 | R 3.52
G15: I 3.9 | P 4.29 | T 2.73 | W 2.36 | S 2.85 | L 2.52 | Q 2.59 | M 3.83 | F 3.12 | V 2.76 | E 3.6 | K 2.63 | N 2.23 | A 2.8 | R 2.79 | H 3.96 | Y 2.89 | C 2.89 | D 2.33
P16: N 3.26 | S 2.1 | Q 2.58 | R 3.05 | Y 3.76 | F 3.14 | E 2.88 | D 3.16 | C 3.95 | H 2.25 | M 3.03 | T 2.4 | A 2.25 | G 2.05 | K 2.98 | I 2.04 | L 3.79 | W 2.94 | V 2.47
N6: T 2.97 | P 1.58 | R 2.31 | W 2.96 | Y 2.19 | M 3.44 | I 2.71 | G 3.12 | H 1.97 | L 1.38 | S 2.52 | A 2.28 | V 2.18 | Q 2.39 | D 2.88 | C 3.24 | E 3.28 | F 2.56 | K 2.82
T8: A 3.06 | I 3.12 | R 2.65 | E 2.29 | F 1.62 | S 2.29 | L 4.14 | N 2.63 | Q 3.6 | P 2.54 | G 2.76 | V 2.92 | M 2.02 | H 3.31 | K 2.4 | Y 3.78 | C 3.08 | W 2.44
G14: Q 2.52 | S 3.33 | Y 3.75 | N 2.23 | A 3.63 | M 2.79 | V 3.73 | H 2.88 | F 3.25 | D 3.46 | R 2.42 | E 2.86 | W 3.4 | P 3.48 | I 3.83 | T 3.09 | L 3 | K 2.59 | C 3.15
V20: E 2.13 | D 1.76 | C 3.09 | A 2.9
E2: P 3.82 | I 3 | T 2.64 | W 2.95 | K 2.29 | Y 2 | H 2.8 | V 2.69 | N 3.28 | F 3.3 | L 1.91 | M 3.48 | S 1.47 | G 2.88 | R 2.85 | Q 2.65
L4: I 2.74 | P 2.07 | W 2.2 | D 2.39 | F 2.75 | T 3.41 | E 2.62 | C 1.94 | H 4.32 | S 2.11 | Q 1.93 | N 3.12 | K 3.49 | A 2.54 | Y 3.31
G9: P 2.28 | R 3.01 | S 2.97 | Q 2.71 | I 2.8 | F 2.01 | L 2.21 | A 3.2 | K 2.89 | Y 3.05 | H 3.07 | V 3.09 | E 2.46 | T 3.27 | M 2.47 | N 3.19 | D 2.19 | W 2.95 | C 2.05
V5: K 3.06 | S 2.45 | C 2.67 | I 3.42 | G 1.26 | L 3.05 | F 2.76 | T 1.81 | Q 2.89 | R 2.8 | M 2.83 | A 2.95 | P 4.22 | Y 3.6 | E 1.79 | N 2.58 | D 3.94 | H 2.52 | W 4.3
S18: Y 2.04 | G 1.88 | C 2.74 | N 3 | E 2.23 | V 4.08 | R 3.37 | P 2.26 | W 1.72 | Q 2.45 | A 2.29 | K 2.25 | M 4.17 | T 2.31 | I 3.11 | H 2.35 | L 3.3 | F 3.04
K10: D 2.33 | F 2.92 | I 3.15 | Q 3.07 | S 3.56 | R 2.99 | N 2.25 | E 2.94 | A 2.02 | C 2.55 | P 2.32 | M 2.72 | V 3.02 | Y 2.5 | L 1.94 | W 3.18 | G 4.37 | H 2.51 | T 3.48
Q3: H 3.21 | R 2.4 | W 3.02 | Y 2.99 | K 2.79 | N 3.22 | V 3.16 | L 3.56 | A 1.85 | I 2.94 | T 2.79 | M 2.52 | C 2.98 | G 3.44 | E 2.57 | S 2.73 | F 2.76 | D 3.39
Y19: A 2 | D 1.91 | L 2.89 | V 3.9 | H 3.66 | W 2.46 | R 2.1 | G 2.97 | P 1.74 | M 3.35 | K 3.22 | N 1.97 | Q 2.12 | F 2.11 | C 2.1 | I 2.51 | T 2.33 | E 1.93
F7: V 2.45 | K 2.69 | L 3.36 | N 2.37 | Y 3.39 | R 2.32 | G 1.68 | P 3.16 | E 4.73 | S 2.03 | I 2.32 | C 3.4 | Q 1.74 | D 2.32 | T 3.16 | M 1.98 | W 2.51 | H 2.79
F17: P 1.84 | M 3.54 | G 2.28 | L 3.08 | I 2.47 | N 2.93 | D 1.95 | Y 2.21 | S 2.5 | T 2.41 | K 2.42 | R 3.07 | C 2.79 | W 3.31 | A 2.55 | E 1.97 | H 2.22 | V 2.46 | Q 2.77
M13: Q 2.02 | E 1.54 | I 3.54 | H 2.64 | A 2.1 | S 2.16 | N 2.69 | D 3.13 | Y 3.13 | V 3.14 | W 2.15 | R 2.54 | L 2.2 | P 2.52 | T 2.27 | C 2.52 | F 2.15 | K 2.34 | G 2.77
